The values that follow come from patent US20220298218A1 (ANTAG THERAPEUTICS, published 2022).

*1 amine or outer side, *2 acyl side, *3 side chain or, on linkers, in order; H or OH if unused. Where no end group is shown, it is not given here. Side-chain parts run from the residue outwards. [ ]: non-standard residue; d: D form. The star is where a group is joined. d(γGlu) = O=C(O)[C@@H](CCC(=O)[*:2])N[*:1]; C18 diacid = O=C(O)CCCCCCCCCCCCCCCCC(=O)*; C16 diacid = O=C(O)CCCCCCCCCCCCCCC(=O)*; γGlu = O=C(O)[C@H](CCC(=O)[*:2])N[*:1]; Glutaryl = O=C(CCCC(=O)[*:2])[*:1]; Nle = CCCC[C@H](N)C(=O)O; AEEA = NCCOCCOCC(=O)O; Aib = CC(C)(N)C(=O)O

B1: AT700 (peptide)
peptide: Glutaryl-GTFISDYSIA[Nle]DKIK(C16 diacid)QQDFVEWLLAQKPSSGAPPPS-OH
B2: AT703 (peptide)
peptide: EGTFISDYSIALDKIKQQDFVNWLLAQKPSSGAPPPS
modifications: βGlu at 3; Aib at 13; Nle at 14; K18: C16-diacid; C-term COOH
B3: AT696 (peptide)
peptide: EGTFISEYSI[Aib][Nle]EKIK([AEEA-AEEA-γGlu-C18 diacid])QQEFVEWLLAQKPSSGAPPPS-OH
modifications: N-terminus assumed
SMILES: CCCC[C@H](NC(=O)C(C)(C)NC(=O)[C@@H](NC(=O)[C@H](CO)NC(=O)[C@H](Cc1ccc(O)cc1)NC(=O)[C@H](CCC(=O)O)NC(=O)[C@H](CO)NC(=O)[C@@H](NC(=O)[C@H](Cc1ccccc1)NC(=O)[C@@H](NC(=O)CNC(=O)[C@@H](N)CCC(=O)O)[C@@H](C)O)[C@@H](C)CC)[C@@H](C)CC)C(=O)N[C@@H](CCC(=O)O)C(=O)N[C@@H](CCCCN)C(=O)N[C@H](C(=O)N[C@@H](CCCCNC(=O)COCCOCCNC(=O)COCCOCCNC(=O)CC[C@H](NC(=O)CCCCCCCCCCCCCCCCC(=O)O)C(=O)O)C(=O)N[C@@H](CCC(N)=O)C(=O)N[C@@H](CCC(N)=O)C(=O)N[C@@H](CCC(=O)O)C(=O)N[C@@H](Cc1ccccc1)C(=O)N[C@H](C(=O)N[C@@H](CCC(=O)O)C(=O)N[C@@H](Cc1c[nH]c2ccccc12)C(=O)N[C@@H](CC(C)C)C(=O)N[C@@H](CC(C)C)C(=O)N[C@@H](C)C(=O)N[C@@H](CCC(N)=O)C(=O)N[C@@H](CCCCN)C(=O)N1CCC[C@H]1C(=O)N[C@@H](CO)C(=O)N[C@@H](CO)C(=O)NCC(=O)N[C@@H](C)C(=O)N1CCC[C@H]1C(=O)N1CCC[C@H]1C(=O)N1CCC[C@H]1C(=O)N[C@@H](CO)C(=O)O)C(C)C)[C@@H](C)CC
B4: AT694 (peptide)
peptide: EGTFISEYSIA[Nle]EKIK([AEEA-AEEA-γGlu-C18 diacid])QQEFVEWLLAQKPSSGAPPPS-OH
modifications: N-terminus assumed
SMILES: CCCC[C@H](NC(=O)[C@H](C)NC(=O)[C@@H](NC(=O)[C@H](CO)NC(=O)[C@H](Cc1ccc(O)cc1)NC(=O)[C@H](CCC(=O)O)NC(=O)[C@H](CO)NC(=O)[C@@H](NC(=O)[C@H](Cc1ccccc1)NC(=O)[C@@H](NC(=O)CNC(=O)[C@@H](N)CCC(=O)O)[C@@H](C)O)[C@@H](C)CC)[C@@H](C)CC)C(=O)N[C@@H](CCC(=O)O)C(=O)N[C@@H](CCCCN)C(=O)N[C@H](C(=O)N[C@@H](CCCCNC(=O)COCCOCCNC(=O)COCCOCCNC(=O)CC[C@H](NC(=O)CCCCCCCCCCCCCCCCC(=O)O)C(=O)O)C(=O)N[C@@H](CCC(N)=O)C(=O)N[C@@H](CCC(N)=O)C(=O)N[C@@H](CCC(=O)O)C(=O)N[C@@H](Cc1ccccc1)C(=O)N[C@H](C(=O)N[C@@H](CCC(=O)O)C(=O)N[C@@H](Cc1c[nH]c2ccccc12)C(=O)N[C@@H](CC(C)C)C(=O)N[C@@H](CC(C)C)C(=O)N[C@@H](C)C(=O)N[C@@H](CCC(N)=O)C(=O)N[C@@H](CCCCN)C(=O)N1CCC[C@H]1C(=O)N[C@@H](CO)C(=O)N[C@@H](CO)C(=O)NCC(=O)N[C@@H](C)C(=O)N1CCC[C@H]1C(=O)N1CCC[C@H]1C(=O)N1CCC[C@H]1C(=O)N[C@@H](CO)C(=O)O)C(C)C)[C@@H](C)CC
B5: AT695 (peptide)
peptide: EGTFISEYSI[Aib]LEKIK([AEEA-AEEA-γGlu-C18 diacid])QQEFVEWLLAQKPSSGAPPPS-OH
modifications: N-terminus assumed
SMILES: CC[C@H](C)[C@H](NC(=O)[C@H](CCCCN)NC(=O)[C@H](CCC(=O)O)NC(=O)[C@H](CC(C)C)NC(=O)C(C)(C)NC(=O)[C@@H](NC(=O)[C@H](CO)NC(=O)[C@H](Cc1ccc(O)cc1)NC(=O)[C@H](CCC(=O)O)NC(=O)[C@H](CO)NC(=O)[C@@H](NC(=O)[C@H](Cc1ccccc1)NC(=O)[C@@H](NC(=O)CNC(=O)[C@@H](N)CCC(=O)O)[C@@H](C)O)[C@@H](C)CC)[C@@H](C)CC)C(=O)N[C@@H](CCCCNC(=O)COCCOCCNC(=O)COCCOCCNC(=O)CC[C@H](NC(=O)CCCCCCCCCCCCCCCCC(=O)O)C(=O)O)C(=O)N[C@@H](CCC(N)=O)C(=O)N[C@@H](CCC(N)=O)C(=O)N[C@@H](CCC(=O)O)C(=O)N[C@@H](Cc1ccccc1)C(=O)N[C@H](C(=O)N[C@@H](CCC(=O)O)C(=O)N[C@@H](Cc1c[nH]c2ccccc12)C(=O)N[C@@H](CC(C)C)C(=O)N[C@@H](CC(C)C)C(=O)N[C@@H](C)C(=O)N[C@@H](CCC(N)=O)C(=O)N[C@@H](CCCCN)C(=O)N1CCC[C@H]1C(=O)N[C@@H](CO)C(=O)N[C@@H](CO)C(=O)NCC(=O)N[C@@H](C)C(=O)N1CCC[C@H]1C(=O)N1CCC[C@H]1C(=O)N1CCC[C@H]1C(=O)N[C@@H](CO)C(=O)O)C(C)C
B6: AT699 (peptide)
peptide: [βGlu]GTFISDYSIA[Nle]DKIK(C16 diacid)QQDFVEWLLAQKPSSGAPPPS-OH
B7: AT697 (peptide)
peptide: [γGlu]GTFISDYSIA[Nle]DKIK(C16 diacid)QQDFVEWLLAQKPSSGAPPPS-OH
modifications: N-terminus assumed
SMILES: CCCC[C@H](NC(=O)[C@H](C)NC(=O)[C@@H](NC(=O)[C@H](CO)NC(=O)[C@H](Cc1ccc(O)cc1)NC(=O)[C@H](CC(=O)O)NC(=O)[C@H](CO)NC(=O)[C@@H](NC(=O)[C@H](Cc1ccccc1)NC(=O)[C@@H](NC(=O)CNC(=O)CC[C@H](N)C(=O)O)[C@@H](C)O)[C@@H](C)CC)[C@@H](C)CC)C(=O)N[C@@H](CC(=O)O)C(=O)N[C@@H](CCCCN)C(=O)N[C@H](C(=O)N[C@@H](CCCCNC(=O)CCCCCCCCCCCCCCC(=O)O)C(=O)N[C@@H](CCC(N)=O)C(=O)N[C@@H](CCC(N)=O)C(=O)N[C@@H](CC(=O)O)C(=O)N[C@@H](Cc1ccccc1)C(=O)N[C@H](C(=O)N[C@@H](CCC(=O)O)C(=O)N[C@@H](Cc1c[nH]c2ccccc12)C(=O)N[C@@H](CC(C)C)C(=O)N[C@@H](CC(C)C)C(=O)N[C@@H](C)C(=O)N[C@@H](CCC(N)=O)C(=O)N[C@@H](CCCCN)C(=O)N1CCC[C@H]1C(=O)N[C@@H](CO)C(=O)N[C@@H](CO)C(=O)NCC(=O)N[C@@H](C)C(=O)N1CCC[C@H]1C(=O)N1CCC[C@H]1C(=O)N1CCC[C@H]1C(=O)N[C@@H](CO)C(=O)O)C(C)C)[C@@H](C)CC
B8: AT702 (peptide)
peptide: Glutaryl-GTFISDYSIA[Nle]DKIK([AEEA-AEEA-γGlu-C18 diacid])QQDFVEWLLAQKPSSGAPPPS-OH
B9: AT698 (peptide)
peptide: [d(γGlu)]GTFISDYSIA[Nle]DKIK(C16 diacid)QQDFVEWLLAQKPSSGAPPPS-OH
modifications: N-terminus assumed
SMILES: CCCC[C@H](NC(=O)[C@H](C)NC(=O)[C@@H](NC(=O)[C@H](CO)NC(=O)[C@H](Cc1ccc(O)cc1)NC(=O)[C@H](CC(=O)O)NC(=O)[C@H](CO)NC(=O)[C@@H](NC(=O)[C@H](Cc1ccccc1)NC(=O)[C@@H](NC(=O)CNC(=O)CC[C@@H](N)C(=O)O)[C@@H](C)O)[C@@H](C)CC)[C@@H](C)CC)C(=O)N[C@@H](CC(=O)O)C(=O)N[C@@H](CCCCN)C(=O)N[C@H](C(=O)N[C@@H](CCCCNC(=O)CCCCCCCCCCCCCCC(=O)O)C(=O)N[C@@H](CCC(N)=O)C(=O)N[C@@H](CCC(N)=O)C(=O)N[C@@H](CC(=O)O)C(=O)N[C@@H](Cc1ccccc1)C(=O)N[C@H](C(=O)N[C@@H](CCC(=O)O)C(=O)N[C@@H](Cc1c[nH]c2ccccc12)C(=O)N[C@@H](CC(C)C)C(=O)N[C@@H](CC(C)C)C(=O)N[C@@H](C)C(=O)N[C@@H](CCC(N)=O)C(=O)N[C@@H](CCCCN)C(=O)N1CCC[C@H]1C(=O)N[C@@H](CO)C(=O)N[C@@H](CO)C(=O)NCC(=O)N[C@@H](C)C(=O)N1CCC[C@H]1C(=O)N1CCC[C@H]1C(=O)N1CCC[C@H]1C(=O)N[C@@H](CO)C(=O)O)C(C)C)[C@@H](C)CC
B10: AT701 (peptide)
peptide: [βGlu]GTFISDYSIA[Nle]DKIK([AEEA-AEEA-γGlu-C18 diacid])QQDFVEWLLAQKPSSGAPPPS-OH

In the test the target is T1, human GIP receptor (human, UniProt P48546 22-466).
T1 sequence (looked up): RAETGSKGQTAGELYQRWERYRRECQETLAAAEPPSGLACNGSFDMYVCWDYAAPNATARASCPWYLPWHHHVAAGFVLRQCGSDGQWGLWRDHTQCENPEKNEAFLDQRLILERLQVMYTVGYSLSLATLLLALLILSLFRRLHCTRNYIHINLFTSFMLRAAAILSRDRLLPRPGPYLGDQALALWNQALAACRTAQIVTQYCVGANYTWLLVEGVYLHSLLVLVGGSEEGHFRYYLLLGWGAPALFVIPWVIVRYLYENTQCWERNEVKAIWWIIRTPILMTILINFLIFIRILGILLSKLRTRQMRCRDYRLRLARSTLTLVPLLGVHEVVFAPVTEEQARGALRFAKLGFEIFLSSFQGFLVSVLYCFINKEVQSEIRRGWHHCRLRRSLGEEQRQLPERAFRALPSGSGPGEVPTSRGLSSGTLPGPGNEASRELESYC
The experiment in a line: cell-based or functional assay.
Regarding B1, the “cAMP agonism % Emax” value came out at 3%, the “cAMP antagonism” value stood at 0.708 nM, the “cAMP antagonism % inhib” value worked out at 89% and the “cAMP antagonism pIC50” value was 9.2.
The corresponding values for B2 are 0%, 4.3 nM, 93% and 8.6.
As for B3, the “cAMP agonism % Emax” value is 0%, the “cAMP antagonism” value turned out to be 0.584 nM, the “cAMP antagonism % inhib” value is 97% and the “cAMP antagonism pIC50” value turned out to be 9.2.
On the same counts, the results for B4 are 4%, 1.47 nM, 88% and 8.8.
B5: the “cAMP agonism % Emax” value worked out at 0%, the “cAMP antagonism” value came out at 0.794 nM, the “cAMP antagonism % inhib” value came to 98% and the “cAMP antagonism pIC50” value turned out to be 9.1.
The corresponding values for B6 are 0%, 6.31 nM, 88% and 8.2.
On the same counts, the results for B7 are 8%, 2.82 nM, 81% and 8.6.
On the same counts, the results for B8 are 0%, 3.55 nM, 85% and 8.5.
Consider B9, for which the “cAMP agonism % Emax” value is 8%, the “cAMP antagonism” value worked out at 9.26 nM, the “cAMP antagonism % inhib” value is 78% and the “cAMP antagonism pIC50” value is 8.
On the same counts, the results for B10 are 13%, 12.6 nM, 63% and 7.9.
